Numbering of substitutions follows the chain as printed.

What all share (experiment): fluorescence polarization
Conditions in all cases: 50 mM HEPES-KOH pH 7.5, 10 mM potassium acetate, 2 mM beta-mercaptoethanol, 0.1 mg/mL BSA, 5 mM MgCl2, 2 nM DNA, temperature not stated
(Fluorescence polarisation rises when a labelled molecule tumbles more slowly, as on binding a larger partner.)

Data set [1] addresses T1, pol eta core R167Q R167Q (Homo sapiens) (UniProt Q9Y253).
T1 sequence: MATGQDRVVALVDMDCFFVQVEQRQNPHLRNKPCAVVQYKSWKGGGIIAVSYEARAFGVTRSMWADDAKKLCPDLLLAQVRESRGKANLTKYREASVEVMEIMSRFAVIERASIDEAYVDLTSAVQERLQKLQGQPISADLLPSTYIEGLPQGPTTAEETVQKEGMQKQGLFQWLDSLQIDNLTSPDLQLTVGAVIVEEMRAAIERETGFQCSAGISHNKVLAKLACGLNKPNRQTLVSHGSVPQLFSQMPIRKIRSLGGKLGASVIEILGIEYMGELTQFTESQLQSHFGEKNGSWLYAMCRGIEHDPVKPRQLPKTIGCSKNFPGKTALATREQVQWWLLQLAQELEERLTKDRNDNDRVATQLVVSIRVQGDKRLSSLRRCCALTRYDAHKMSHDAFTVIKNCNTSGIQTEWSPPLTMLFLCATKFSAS

The target in data set [2] is T2, pol eta core T329I T329I (Homo sapiens) (UniProt Q9Y253).
T2 sequence: T1 sequence with Q167R, T329I

For data set [3], the target named is T3, pol eta core S296F S296F (Homo sapiens) (UniProt Q9Y253).
T3 sequence: T1 sequence with Q167R, S296F

For data set [4], the target named is T4, DNA polymerase eta core, wild-type (Homo sapiens) (UniProt Q9Y253).
T4 sequence: T1 sequence with Q167R

For data set [5], the target named is T5, pol eta core I272T I272T (Homo sapiens) (UniProt Q9Y253).
T5 sequence: T1 sequence with Q167R, I272T

The target in data set [6] is T6, pol eta core R334G R334G (Homo sapiens) (UniProt Q9Y253).
T6 sequence: T1 sequence with Q167R, R334G

Data set [7] addresses T7, pol eta core I147N I147N (Homo sapiens) (UniProt Q9Y253).
T7 sequence: T1 sequence with I147N, Q167R

The target of data set [8] is T8, pol eta core G209V G209V (Homo sapiens) (UniProt Q9Y253).
T8 sequence: T1 sequence with Q167R, G209V

Data set [9] has as its target T9, pol eta core C34W C34W (Homo sapiens) (UniProt Q9Y253).
T9 sequence: T1 sequence with C34W, Q167R

[10] abbreviates: cis-syn cyclobutane thymine dimer at T7-T8 of the 25-mer template.

For the sequence “CACCATCCACTAC / ATGTAGTTGTAGTGGATGGTGGTAC [13-FAM-mer/25-CTD-mer]”, the Kd was 18 nM in data set [1] (setting [10]); 5.9 nM in [2] (setting [10]); 14 nM in [3] (setting [10]); 11 nM in data set [4] (setting [10]); 11 nM in data set [5] (setting [10]); 12 nM in data set [6] (setting [10]). The results for the Kd in [7] (setting [10]), in [8] (setting [10]) and in data set [9] (setting [10]) were 7 nM, 11 nM and 5.9 nM, respectively.

For the sequence “CACCATCCACTAC / ATGTAGTTGTAGTGGATGGTGGTAC [13-FAM-mer/25-TT-mer]”, the Kd in data set [1] came out at 9.5 nM; in data set [2] it was 5 nM; in data set [3], 10 nM; in [4] it was 10 nM; in data set [5], 8.5 nM; in [6], 11 nM. In addition, the values for the Kd in [7], in data set [8] and in [9] were 6.7 nM, 8.4 nM and 6.1 nM, respectively.

As usually defined, the Kd is the constant that tells how readily two partners part at equilibrium.

For the origin of these results see paper PMC10048814.
